{"source": "patent US20200190220A1", "about": "(FRED HUTCHINSON CANCER RESEARCH CENTER, published 2020)", "target": "T1, FITC-labeled peptide with the target sequence for the SH2 domain, EHIpYDEVAAD", "T1 construct": "also called N-Glu-His-Ile-pTyr-Asp-Glu-Val-Ala-Ala-Asp-C", "T1 peptide": "{FITC-Ahx}-EHI[pY]DEVAAD", "assay": "fluorescence anisotropy of FITC-labeled peptide against rising protein concentration (FIG. 16D)", "description": "FIGS. 16A-16E. Functional (peptide-binding) characterization of dTor_12×31L_SH2_single (12× scaffold containing 1 SH2 domain). FIG. 16A: SDS-PAGE electrophoretic analysis of purified dTor_12×31L SH2_single (corresponding to a monomeric cTRP containing 12 repeats, interrupted within repeat #3 by an SH2 domain derived from the human Nck2 adapter protein). FIG. 16B: ribbon diagram of the design of dTor_12×31L SH2_single, visualized from the top and the side of the designed protein repeats. FIG. 16C: Size Exclusion Chromatographic (SEC) separation and analysis of purified dTor_12×31L_SH2_single. Hydrodynamic radii of purified constructs, measured using dynamic light scattering (DLS), is also indicated. FIG. 16D: Binding of peptide corresponding to sequence by dTor_12×31L_SH2_single. Binding measured by monitoring Fluorescence Anisotropy signal from a labeled peptide as a function of increasing protein concentration. […]\nDetermination of ligand binding using Fluorescence Polarization (FP): Each protein construct was 2-fold serially diluted into twelve concentrations, from 23 μM to 0.011 μM, using FP Buffer (20 mM HEPES+150 mM KCl at pH7.4). […] Background was subtracted from raw perpendicular and parallel fluorescence intensity, which were then converted to fluorescence polarization (mP) by the following equation: […]", "note": "Where no end group is shown, it is not given here. [ ]: non-standard residue; d: D form. The star is where a group is joined. FITC = O=C1OC2(c3ccc(O)cc3Oc3cc(O)ccc32)c2ccc(NC(=S)*)cc21; pY = N[C@@H](Cc1ccc(OP(=O)(O)O)cc1)C(=O)O; Ahx = NCCCCCC(=O)O"}
{"binder": "dTor_12×31L (non-functionalized, lacking any inserted SH2 domain) (designed binder) GSSMASGISVEELLKLAKAAYYSGTTVEEAYKLALKLGISVEELLKLAEAAYYSGTTVEEAYKLALKLGISVEELLKLAKAAYYSGTTVEEAYKLALKLGISVEELLKLAKAAYYSGTTVEEAYKLALKLGISVEELLKLAEAAYYSGTTVEEAYKLALKLGISVEELLKLAKAAYYSGTTVEEAYKLALKLGISVEELLKLAKAAYYSGTTVEEAYKLALKLGISVEELLKLAEAAYYSGTTVEEAYKLALKLGISVEELLKLAKAAYYSGTTVEEAYKLALKLGISVEELLKLAKAAYYSGTTVEEAYKLALKLGISVEELLKLAEAAYYSGTTVEEAYKLALKLGISVEELLKLAKAAYYSGTTVEEAYKLALKLG", "values": [{"measurement": "binding result", "value": "no binding"}]}
